Assay results reported in US20090203877A1, “X-RAY-DENSE CONJUGATE” (Eberhard-Karls-Universitaet Tuebingen Universitaetsklinkum, priority 2006, published 2009).
Entries after “also recorded” stand apart in the source; their conditions may differ.

Tested on: human malignant U373 glioma cells
Assay: Cell viability / cell death (MTT test, propidium iodide, annexin-V-Alexa 568 binding, FACS scatter morphology)
Details: for binding of annexin-V-Alexa 568 reagent (phosphatidyl serine) / cytotoxic effects: 260 μM in 0.1% DMSO/PBS; for binding of annexin-V-Alexa 568 reagent (phosphatidyl serine) / cytotoxic effects / cytotoxic effects / signs of cell death: substance alone; for cytotoxic effects / signs of cell death: 260 μM in PBS
Protocol: Human malignant U373-glioma cells were grown to 70% confluency in RPMI-1640 Ready Mix Medium containing L-Glutamine and 10% FBS-Gold (PAA laboratories, Pasching, Austria) at 37° C., 5% CO2 (vol/vol), in 4-well-plates (NUNC, Wiesbaden, Germany) with about 300,000 cells pro well. […] After this, the cells were washed three times with buffer and then incubated with Ready Mix Medium again. Cell viability was then assessed by the addition of methyl-thiazoyl-tetrazolium (MTT) salt (Sigma-Aldrich, Germany) at a concentration of 15 mg/ml. After 20 minutes, the production of formazan was investigated. When blue formazan granules were detected, propidium iodine (PI) was added to the medium (1 μM PI; Molecular Probes, Eugene, Oreg., USA) to detect cells with damaged cell membranes. […] Pictures were taken with a 3-CCD color video camera (MC3254P, Sony, Japan) and the Axiovision Software (Carl Zeiss, Jena, Germany). The intensity of cell fluorescence was recorded at the exposure time necessary for the production of the fluorescence images.
After imaging, Accutase™ (PAA laboratories, Pasching, Austria) was added to the wells to achieve detachment of the cells for further FACS analysis. Fluorescence was measured in a Becton Dickinson FACSCalibur. A total of 20,000 events per sample were analyzed. The investigations were performed in triplicate.
A sample of cells from each Eppendorf tube was subjected to the MTT test (described under 1.4) to determine microscopically whether the cells were viable. In vitro CT of the cell pellets was performed with a Somatom Sensation 16 (Siemens) which is used for routine clinical investigations.
Cells were incubated for 20 minutes with each of the conjugates dissolved in 0.1% DMSO/PBS at 260 μm. The cells were also incubated with TIBA and both of the non-TIBA-containing conjugates (3 and 4) separately in 0.1% DMSO/OBS at 260 μm. Both TIBA and the conjugates were dissolved in 0.1% DMSO/PBS at 260 μm for incubation due to the insolubility of TIBA (but not the conjugates) in pure PBS. As controls, the cells were incubated with PBS alone, 0.1% DMSO/PBS alone, and TIBA alone (260 μm in 0.1% DMSO/PBS).
The detection of phosphatidyl serine in the outer membrane leaflet of apoptotic cells was performed with the Annexin-V-Alexa™-568-reagent according to manufacturer's protocol (Roche Molecular Biochemicals, Indianapolis, USA). The confocal laser-scanning microscopy was performed on an inverted LSM 510 laser-scanning microscope (Carl Zeiss, Jena, Germany) (objectives: LD Achroplan 40×0.6, Plan Neofluar 20×0.50, 40×0.75). For fluorescence excitation, the 488 nm line of an argon-ion laser and the […] line of a helium-neon laser with appropriate beam splitters and barrier filters were used for FITC and Alexa respectively. Superimposed images of FITC- and Alexa-stained samples were created by overlaying coincident views. All measurements were performed on living, non-fixed cells.
Human malignant LN18 and U373 glioma cells were cultivated in four-well plates (NUNC, Wiesbaden, Germany) (about 300,000 cells per well) as described under 1.5. […] The cells were also coincubated either with CIBA, FIBA or TBPI as well as the NLS-FITC conjugate 3 (each 260 μM). As a control cells were used which were only incubated either with CIBA, FIBA or TBPI (260 μM in PBS) alone. After the incubation the cells were washed three times with PBS and in the following again incubated in Ready Mix Medium. The FITC-labelled conjugates and the Alexa-Annexin for the detection of phosphatidylserine as a signal of the cell death were localized with the confocal laser microscopy (CLSM) as in 1.6.1. All measurements were performed on living cells.

Substance	binding of annexin-V-Alexa 568 reagent (phosphatidyl serine) / cytotoxic effects (20 min)	cytotoxic effects / signs of cell death (20 min)	binding of annexin-V-Alexa 568 reagent / cell viability (conjugate co-incubated with free TIBA (260 μM))	cell viability / cell death (non-TIBA conjugates, 26 μM, 260 μM and 2.6 mM)	cell viability (MTT formazan, propidium iodide uptake) (26 μM, 20 min)	cellular morphology, side scatter versus forward scatter FACS (26 μM, compared to PBS controls)
PKKKRKVK(FITC)GGK (FITC, GGK linker) [conjugate 3]	did not result in binding	did not show any signs of cell death; also recorded: without a sign of cell dead	fails to result in binding; also recorded: did not result in any changes	No cell death	–	–
PKKKRKVK(FITC)GGK(BA) (FITC, GGK linker, benzoic acid) [conjugate 9]	–	no signs of cell death	–	–	–	–
PKKKRKVK(FITC)GGK(TIBA) (FITC, GGK linker, TIBA) [conjugate 1]	binding of annexin-V-Alexa™ 568 reagent was found; also recorded: Most of these cells show the expression of phosphatidyl serine in the outer membrane leaflet	–	–	–	living cells; also recorded: no signs of cell death	no changes in the cellular morphology
